Data on 10 sequences can be found in a protein production outcome set (Wang et al. 2014).

The data set can be described thus: label from the status in PepcDB records.
For the sequence “MITRNAPRHALLGLILAGSLGTFVALPAVADNAAPAEQGQTTPALGSNLQTLKELDGKAPARRALNIQTWNTAEGARVLFVESRELPMFDMRLTFAAGSSQDQKSPGIALLTNAMLNEGVKGKDVNAIAQGFEGLGADFSNGSYRDMAVTSLRSLSAADKRDPALKLFSEVVGKPTFPADSLARIKNQLIASFKTQKQNPGAIASKELFNHLYGDHPYAHPSEGDAKSINAITLAQLKAFHAKGYAAGNAVIALVGDLSRDEAQAVAAQVSASLPKGPALAKVADPVEPKAGTTHIEFASNQTHLMLAQLGIDRNDPDYAALTVGNSVLGGGGFGSRLMTEVREKRGLTYGVSSGFTAMQVAGPFMIGLQTRAEMSENTLKLVQDIVRDFLANGPTQKEIDDVKRELTGSFPLTAASNSAIVGQLGAIGFYNLPLTYLEDYMAAAQSVTVEQVKAAMSKHLSADKMVIVTVGPTVEQKPLPAPTDKPTRQPVGVPEH”, the protein production entry is “failed”. With “MITSIARQSIILKCLRQKSVLVSNYELYYTAGLAKKCFGIAVDADMEPKQLLEELQKHIDKVSPADEQEKYLIHLLGNYEPDDTHDEQTVELFHMGETEEHIWQVSIT”, the protein production result was “not failed”.

As for “MITSLPDNYSPQRQIPIKPDITFVHVRLAHFIAMGAGIGLIRYMPGTAGTIAAFPFYRFLDSIIEPVSLLLIIDVFFIMGIWACAVTGRALNSPDHSGMVWDEIVAFMLVLFFTPDHWTWQLAAFFLFRFFDIVKPAPIGYLDARLKGGLGVMLDDLLAAFYTLLCLAGWKSMVLFESYF”, the protein production result is “failed”. In the case of “MITVSIVSHGQSTLVEQLLADLVRLDMSMVTEVLVTLNIPEDISSKPGDYPYPVRILRNTAARGFGANHNAAFRQAEGEWFCVMNPDIRLINNPFPILIEEGAYDSAGVIAPMVVTPSGMIEDSVRCFPVLTSLAAKLFGHGDGRYLFAAGDEAFAADWVAGMFMLFRTEDFRAVGGFDEGFFLYYEDVDICARLWKSGRSVLACPKASVIHDARRSSRRNLRYMKWHALSLIRYFWKHWGRLPQTPEQLEHHHHHH”, the protein production result was “not failed”.

Regarding “MIVLALDVYEGERAIKIAKSVKDYISMIKVNWPLILGSGVDIIRRLKEETGVEIIADLKLADIPNTNRLIARKVFGAGADYVIVHTFVGRDSVMAVKELGEIIMVVEMSHPGALEFINPLTDRFIEVANEIEPFGVIAPGTRPERIGYIRDRLKEGIKILAPGIGAQGGKAKDAVKAGADYIIVGRAIYNAPNPREAAKAIYDEIRGV”, the protein production entry was “not failed”. On to “MIVPGGFPAPVTGSAVAASPPLPTVRLLSLDAHGRVLDWINWQDAACLYARDAVSWTLGEPCMQIHGGVSRLTGERSVLELHPIIAARGHARSRALDPTPTLTNTALFARDSQLCMYCGQHFSRPHLTRDHVMPVSKGGRDSWENVVTACFQCNSRKANRTPQQAHMPLLAVPYRPSWIEHLILSNRNILSDQMAFLRAQLPKRSKLSLLEHHHHHH”, for which the protein production result is reported as “failed”.

For “MIVTLLAVGAAAAVGAVARYMLDQYVQYRSPGLFPLGTWLINVTGSFVLGLLVGLGARHGLPEQFVPIAGVGFCGAYTTFSTFSYELVHLREKGQVRKSLLYGASSLTAGLLAAAAGLAVESF”, the protein production result is listed as “failed”.

Turning to “MIYFIRKKKWLKQLEKGEAMKYAILIGDGMADYPIEKLGNRTILQAARTPAMDSIAARGRAGLAKTVPDSFPPGSDVANMSILGYDPATYYSGRAPLEAASMGVALAADDVAFRCNLITTEHGMIKDYSAGHISSDEAEILIDTLDYELSTENIRFYPGISYRHLIVAGNNLGAETECTPPHDITGEKIDKYLPRGKDGEFFSELIEASKVVLELHPVNLKRVEEGKNPANSIWVWGQGYAPKFTAFMKLYGKKGAVISAVDLLKGIGIYAGLDVIEVHGATGYLDTNYEGKVRAAIEALKTRDLVFVHVEAPDEAGHEGSIEKKLKAVEDFDSRIVAPILEYAENSDEPFTILVLPDHPTPISVKTHTRDPIPFAIYRTDKPETDNVEAFDEESVKNGSMGLVKASDLIGILIKSLEHHHHHH”, the protein production entry is on record as “not failed”.

Consider “MIYFTGDTHFADPRVLRIDRRPFPDMASHDVTLIRNWNEIVDAQDDIWHLGDFMSFRGGDCDQLLSMLNGRKHLIIGNNDPSTTTEATGWASVQHYSEMTLDDHLLILCHYPFRTWNKMGRKSINLHGHSHGRLKPLPRQYDVGVDAQRLRPVSLQTLLSTKPES”, for which the protein production entry is recorded as “failed”. With “MIYLFTGNMGTGKTSRVVSMILNNEDGLFKMKLEDGTEVDRPLYFCHIDGLDKRQFKAHELTEEQIMSAPLRDVIPEGAVLIVDEAHYTYPVRAAGRPVPPYIQELTELRHHGHTVILMTQHPSQLDIFVRNLVSKHVHLERKAIGMKQYYWYKCVTSLDNPAGVSGVEVASWKPPKEAFKYYKSASQHQ”, the protein production entry is “not failed”.
